Results reported in PMC8113546.

Legend:
[1] = B7H3 IHC of 4T1 B7H3-WT tumours; conditions: glycan changed form; control: PBS
[2] = flow cytometry of cell-surface B7H3, 4T1-B7H3KO; conditions: glycan lost; control: B7H3-WT
[3] = IP of B7H3-WT-Flag, ubiquitin immunoblot; conditions: glycan lost; control: untreated
[4] = CHX chase, remaining B7H3 by immunoblot (half-life); conditions: glycan lost
[5] = flow cytometry of cell-surface B7H3; conditions: glycan lost
[6] = flow cytometry of cell-surface B7H3, MDA-MB-231; conditions: glycan changed form; control: untreated
[7] = flow cytometry of cell-surface B7H3, B7H3-WT cells; conditions: glycan changed form; control: control sgRNA
[8] = immunoblot, MDA-MB-231 and HCC1806; conditions: glycan changed form; control: control sgRNA

B1: mouse B7H3: 2F-Fuc (protein)
parent chain: MLRGWGGPSVGVCVRTALGVLCLCLTGAVEVQVSEDPVVALVDTDATLRCSFSPEPGFSLAQLNLIWQLTDTKQLVHSFTEGRDQGSAYSNRTALFPDLLVQGNASLRLQRVRVTDEGSYTCFVSIQDFDSAAVSLQVAAPYSKPSMTLEPNKDLRPGNMVTITCSSYQGYPEAEVFWKDGQGVPLTGNVTTSQMANERGLFDVHSVLRVVLGANGTYSCLVRNPVLQQDAHGSVTITGQPLTFPPEALWVTVGLSVCLVVLLVALAFVCWRKIKQSCEEENAGAEDQDGDGEGSKTALRPLKPSENKEDDGQEIA
For B1, the expression_or_secretion [1] was “decreases”.

B2: mouse B7H3: B7H3-4NQ (protein)
parent chain: B1 parent chain
For B2, the localisation_or_trafficking [2] was “abolishes”.

B3: B7H3: tunicamycin (TM) (protein)
parent chain: MLRRRGSPGMGVHVGAALGALWFCLTGALEVQVPEDPVVALVGTDATLCCSFSPEPGFSLAQLNLIWQLTDTKQLVHSFAEGQDQGSAYANRTALFPDLLAQGNASLRLQRVRVADEGSFTCFVSIRDFGSAAVSLQVAAPYSKPSMTLEPNKDLRPGDTVTITCSSYQGYPEAEVFWQDGQGVPLTGNVTTSQMANEQGLFDVHSILRVVLGANGTYSCLVRNPVLQQDAHSSVTITPQRSPTGAVEVQVPEDPVVALVGTDATLRCSFSPEPGFSLAQLNLIWQLTDTKQLVHSFTEGRDQGSAYANRTALFPDLLAQGNASLRLQRVRVADEGSFTCFVSIRDFGSAAVSLQVAAPYSKPSMTLEPNKDLRPGDTVTITCSSYRGYPEAEVFWQDGQGVPLTGNVTTSQMANEQGLFDVHSVLRVVLGANGTYSCLVRNPVLQQDAHGSVTITGQPMTFPPEALWVTVGLSVCLIALLVALAFVCWRKIKQSCEEENAGAEDQDGEGEGSKTALQPLKHSDSKEDDGQEIA
With B3 the “other: K48 ubiquitination” value [3] was “increases”, the degradation_or_half_life ([4]; control: untreated) was “decreases” and the localisation_or_trafficking ([5]; control: untreated) was “decreases”.

B4: B7H3: B7H3-8NQ (protein)
parent chain: B3 parent chain
With B4 the degradation_or_half_life ([4]; control: B7H3-WT) was “decreases” and the localisation_or_trafficking ([5]; control: B7H3-WT) was “abolishes”.

B5: B7H3: 2F-Fuc (protein)
parent chain: B3 parent chain
In the case of B5, the localisation_or_trafficking [6] is reported as “decreases”.

B6: B7H3: FUT8 knockout (protein)
parent chain: B3 parent chain
For B6, the localisation_or_trafficking [7] was “decreases” and the expression_or_secretion [8] was “decreases”.
